For test [1], the target named is soluble recombinant human CD27 with R87A substitution (human) (UniProt P26842). Description: ELISA; mutated (R87A) CD27 captured on plates coated with anti-FLAG antibody, detection with goat anti-human IgG Fc-HRP; panel title 'mutated CD27'.
Test [2] deals with T1, recombinant human CD27 (soluble, captured on anti-FLAG coated ELISA plates) (human, UniProt P26842 20-191).
T1 construct: also called rCD27; sCD27
T1 sequence: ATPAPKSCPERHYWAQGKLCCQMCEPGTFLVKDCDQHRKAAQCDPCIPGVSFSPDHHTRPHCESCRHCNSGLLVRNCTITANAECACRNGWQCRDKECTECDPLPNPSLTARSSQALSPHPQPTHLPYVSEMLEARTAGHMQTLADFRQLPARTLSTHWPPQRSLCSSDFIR
Description: ELISA; CD27 captured on plates coated with anti-FLAG antibody, detection with goat anti-human IgG Fc-HRP; panel title 'Recombinant CD27'. The protocol: In this example, the binding activity of the CD27 agonists prepared as described in Example 2 was examined. Binding to recombinant CD27 (rCD27) was tested by standard ELISA. Human CD27 was captured on ELISA plates coated with anti-FLAG antibody, followed by incubation with CD27 agonists. A goat anti-human IgG Fc-HRP (horseradish peroxidase) antibody and substrate Super Blue TMB were used for detection.
The CD27 agonists tested were 1F5mAb-1F5sFv (sFv), 1F5mAb-2C2sFv (sFv) and 1F5mAb-CD70. The full-length, unconjugated IgG form of the anti-human CD27 monoclonal antibodies 1F5 and 2C2 were used as positive controls. Binding to a mutant form of soluble CD27, in which the arginine at position 87 was substituted with alanine (R87A), which is within the 1F5 binding site, was also tested.

Residue numbers refer to the chain shown, from its start.

B1: human anti-human CD27 monoclonal antibody 2C2 (full-length, unconjugated IgG) (antibody, V domains shown)
VH: QVQLVESGGGVVQPGRSLRLSCAASGFTFSSYDIHWVRQAPGKGLEWVAVIWNDGSNKYYADSVKGRFTISRDNSTNSLFLQMNSLRAEDTAVYYCVGGTADLEHWDQGTLVTVSS
VL: DIQMTQSPSSLSASVGDRVTITCRASQGISSWLAWYQQKPEKAPKSLIYAASSLQSGVPSRFSGSGSGTDFTLTISSLQPEDFATYYCQQYNSYPLTFGGGTKVEIK
notes: Tested as full-length unconjugated IgG; also called 2C2 mAb
For B1, the EC50 (read off the curve) in test [1] came out at 0.02 µg/mL. In addition, the binding result in test [2] was “binds”.

B2: human anti-human CD27 monoclonal antibody 1F5 (full-length, unconjugated IgG) (antibody, V domains shown)
VH: QVQLVESGGGVVQPGRSLRLSCAASGFTFSSYDMHWVRQAPGKGLEWVAVIWYDGSNKYYADSVKGRFTISRDNSKNTLYLQMNSLRAEDTAVYYCARGSGNWGFFDYWGQGTLVTVSS
VL: B1 VL with S31R, S93T, L96R, G100Q
notes: also called 1F5 mAb; anti-CD27 antibody (1F5)
B2: the binding result in test [2] was “binds”.

The values are drawn from patent US20180044429A1 (CELLDEX THERAPEUTICS, published 2018).
